Measured values taken from patent US20230026627A1, “Compositions and Methods of Manufacturing Star Polymers for Ligand Display and/or Drug Delivery” (Vaccitech North America, Inc., priority 2019, published 2023).

Legend:
[1] = Turbidity (OD at 490 nm) / aggregation in aqueous buffer (PBS); type: physicochemical; conditions: turbidity (OD at 490 nm) >0.05 indicates aggregating
Description: Soluble: Capable of becoming molecularly or ionically dispersed in a solvent to form a homogeneous solution. […] Solubility can be determined by visual inspection, by turbidity measurements or by dynamic light scattering.
It was unknown a priori what composition and magnitude of charge would be needed to fully solubilize polymer arms with high densities of amphiphilic or hydrophobic drug (D) molecules. Therefore, we attached high densities (˜10 mol %) of the small molecule aromatic heterocycle, 2BXy, which is a TLR-7/8a, to ˜40 kDa HPMA-based polymer arms (A) through a reactive monomer (E), wherein the polymer arm (A) comprised HPMA monomers as the majority hydrophilic monomer (B) and optionally included either 10 or 20 mol % charged monomers (C) comprising either negatively or positively charged functional groups.

[2] = Hydrodynamic radius (Rh), dynamic light scattering; type: physicochemical; conditions: Table 5

Substance | Turbidity, pH 7.4 ([1]; Table 5, di-block architecture) | Size, Rh (nm) [2] [nm] | Turbidity, pH 7.4 ([1]; Table 4, charged monomers, ~10 mol % TLR-7/8a)
N3-poly(HPMA-co-Ma-b-Ala-2BXy)-Pg [Compound 46] | Aggregate | >1000 | 
N3-poly(HPMA-co-Ma-b-Ala-2BXy-co-Ma-b-Ala-COOH)-Pg [Compound 48] |  |  | 0.043
N3-poly[(HPMA-co-Ma-b-Ala-2BXy)-b-HPMA]-Pg [Compound 62] | 0.039 | 6.6 | 
PAMAM-g-poly[(HPMA-co-Ma-b-Ala-2BXy)-b-HPMA]-Pg [Compound 78] | 0.041 | 12.9 | 
